From patent US6872703B2, “Insulin receptor-related receptor binding protein” (Ajinomoto Co., Inc., priority 2000, dated 2005)

Columns and labels:
IRR = IRR (Homo sapiens, UniProt P14616); details: literature report; cited from earlier work
[1] = target: T1, insulin receptor-related receptor (IRR), IRR-Fc fusion protein (extracellular region of mouse IRR) (Mus musculus, UniProt Q9WTL4); experiment: IRR binding activity by surface plasmon resonance (BIACORE 2000), IRR-Fc binding value minus IR-Fc binding value; details: about 1/10 amount of each re-purified specimen (about 10 μg) lyophilized and dissolved in 200 μl of buffer; IR-Fc binding value subtracted from IRR-Fc binding value
T1 construct: with an extracellular region of mouse IRR (1-920th residues); made in house; host or cells: CHO cells
T1 sequence (Q9WTL4 27-920): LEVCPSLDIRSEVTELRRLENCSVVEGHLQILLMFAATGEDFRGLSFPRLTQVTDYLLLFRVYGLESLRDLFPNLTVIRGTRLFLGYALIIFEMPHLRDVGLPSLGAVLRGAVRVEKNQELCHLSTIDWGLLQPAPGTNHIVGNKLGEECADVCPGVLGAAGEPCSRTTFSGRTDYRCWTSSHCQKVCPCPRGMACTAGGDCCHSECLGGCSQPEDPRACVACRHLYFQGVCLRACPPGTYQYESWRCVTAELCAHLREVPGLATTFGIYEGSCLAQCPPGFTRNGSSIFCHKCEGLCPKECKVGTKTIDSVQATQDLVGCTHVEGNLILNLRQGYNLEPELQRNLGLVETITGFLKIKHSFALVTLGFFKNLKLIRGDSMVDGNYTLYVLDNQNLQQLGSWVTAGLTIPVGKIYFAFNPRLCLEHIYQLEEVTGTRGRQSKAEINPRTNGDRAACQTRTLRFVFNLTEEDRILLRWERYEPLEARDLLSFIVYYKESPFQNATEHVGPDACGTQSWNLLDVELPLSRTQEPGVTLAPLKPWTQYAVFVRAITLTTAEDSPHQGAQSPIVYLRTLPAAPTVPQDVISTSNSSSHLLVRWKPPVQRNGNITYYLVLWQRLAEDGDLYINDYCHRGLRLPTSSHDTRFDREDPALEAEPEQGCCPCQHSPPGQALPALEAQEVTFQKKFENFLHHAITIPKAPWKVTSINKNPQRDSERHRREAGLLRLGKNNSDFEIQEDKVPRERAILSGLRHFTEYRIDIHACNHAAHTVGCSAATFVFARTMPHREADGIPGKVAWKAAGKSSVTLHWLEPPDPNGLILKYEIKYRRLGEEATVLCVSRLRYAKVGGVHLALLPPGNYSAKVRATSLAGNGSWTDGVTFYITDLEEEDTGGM
Description: Determination of active fractions in the purification of the IRR ligand from a supernatant of cells expressing the IRR ligand including the rat C6 glioma cells or identification of granulins/epithelins or mutants thereof as IRR ligands can be carried out by measuring activity for binding to IRR in a sample. The binding activity to IRR of a sample specimen can be measured by using a surface plasmon resonance (SPR) measuring apparatus, for example, BIACORE (produced by Biacore). Specifically, for example, the extracellular domain of IRR is prepared as a soluble protein and immobilized on a surface of a BIACORE sensor chip. A sample specimen is sent onto the surface of the sensor chip via a micro flow system at a constant flow rate. If a molecule binding to IRR (IRR ligand) is contained in the sample specimen, the mass of the surface sensor chip is increased due to binding between IRR and IRR ligand molecules, and a shift of the SPR signal in proportion to the binding quantity can be detected as a change in the resonance unit (RU). […] When, for example, an insulin receptor (IR) protein is used as a protein other than IRR, IRR-binding activity can be measured more precisely. […]

Chain of IRR (P14616 27-742 limits assumed, species assumed): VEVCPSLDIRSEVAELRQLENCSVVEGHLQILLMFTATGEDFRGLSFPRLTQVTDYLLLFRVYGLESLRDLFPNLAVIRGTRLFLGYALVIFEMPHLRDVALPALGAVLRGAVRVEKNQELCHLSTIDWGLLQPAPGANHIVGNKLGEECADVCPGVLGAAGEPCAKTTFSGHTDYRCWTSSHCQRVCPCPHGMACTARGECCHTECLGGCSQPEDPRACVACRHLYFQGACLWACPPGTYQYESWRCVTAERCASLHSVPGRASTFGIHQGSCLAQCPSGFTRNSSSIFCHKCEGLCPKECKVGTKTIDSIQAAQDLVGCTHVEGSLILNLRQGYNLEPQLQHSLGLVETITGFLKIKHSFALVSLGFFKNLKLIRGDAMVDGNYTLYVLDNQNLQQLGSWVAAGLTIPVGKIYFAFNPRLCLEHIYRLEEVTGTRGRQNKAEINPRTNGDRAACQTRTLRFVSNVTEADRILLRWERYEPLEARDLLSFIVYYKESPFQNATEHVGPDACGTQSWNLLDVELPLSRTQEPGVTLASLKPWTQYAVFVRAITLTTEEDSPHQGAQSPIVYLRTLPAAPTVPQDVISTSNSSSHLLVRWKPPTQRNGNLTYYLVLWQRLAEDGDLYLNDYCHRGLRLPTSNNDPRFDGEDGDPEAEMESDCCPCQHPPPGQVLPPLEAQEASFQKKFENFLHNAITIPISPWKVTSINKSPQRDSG
Chain of IRR (P14616 747-1297 limits assumed, species assumed): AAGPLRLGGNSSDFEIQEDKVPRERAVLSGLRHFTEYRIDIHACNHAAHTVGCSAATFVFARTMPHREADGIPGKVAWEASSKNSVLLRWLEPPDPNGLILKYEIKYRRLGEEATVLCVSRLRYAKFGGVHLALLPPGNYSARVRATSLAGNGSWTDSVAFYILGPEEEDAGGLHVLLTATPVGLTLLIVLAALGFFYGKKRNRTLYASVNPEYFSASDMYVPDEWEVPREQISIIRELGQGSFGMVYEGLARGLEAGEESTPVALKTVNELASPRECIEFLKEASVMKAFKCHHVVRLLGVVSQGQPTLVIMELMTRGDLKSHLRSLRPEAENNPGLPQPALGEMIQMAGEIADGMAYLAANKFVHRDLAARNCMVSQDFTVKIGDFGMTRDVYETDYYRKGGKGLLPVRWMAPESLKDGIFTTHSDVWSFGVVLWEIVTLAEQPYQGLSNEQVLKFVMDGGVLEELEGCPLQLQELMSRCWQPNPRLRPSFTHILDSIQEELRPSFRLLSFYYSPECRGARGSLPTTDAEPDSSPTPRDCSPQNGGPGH

| Molecule | binding to IRR (IRR) | binding activity (IRR-specific binding value, SPR resonance units) [1] |
| --- | --- | --- |
| insulin-like growth factor (IGF)-1 [IGF-1] | cannot bind to IRR | – |
| insulin | cannot bind to IRR | – |
| Peak 2: Re-purified IRR ligand fraction from rat C6 cell supernatant; protein of molecular weight 6135, SEQ ID NO: 4 (epithelin/granulin) (IGCDQHTSCPVGQTCCPSLKGSWACCQLPHAVCCEDRQHCCPAGYTCNVKARTCEKQ; listed as Mus musculus) | – | 21 RU |
| Peak 1: Re-purified IRR ligand fraction from rat C6 cell supernatant; proteins of molecular weights 6250 and 6321, SEQ ID NOS: 5 and 6 (epithelin/granulin) (protein, listed as Mus musculus) chain 1: DIGCDQHTSCPVGQTCCPSLKGSWACCQLPHAVCCEDRQHCCPAGYTCNVKARTCEKN chain 2: DIGCDQHTSCPVGQTCCPSLKGSWACCQLPHAVCCEDTQHCCPAGYTCNVKARTCEKDA | – | 13 RU |
